Data on three molecules can be found in patent publication US20200231654A1 (published 2020).

One assay addresses active hMMP-9(cat)_Y179A (UniProt P14780 107-449). The experiment in a line: substrate peptide degradation inhibition.
For a further assay, the target named is active hMMP-9(cat)_D185A (UniProt P14780 107-449). The assay can be described thus: substrate peptide degradation inhibition.
The target in another assay is active hMMP-9(cat)_Q199G (UniProt P14780 107-449). The experiment in a line: substrate peptide degradation inhibition.
Sequence of active hMMP-9(cat)_Q199G (P14780 107-449 Q199G): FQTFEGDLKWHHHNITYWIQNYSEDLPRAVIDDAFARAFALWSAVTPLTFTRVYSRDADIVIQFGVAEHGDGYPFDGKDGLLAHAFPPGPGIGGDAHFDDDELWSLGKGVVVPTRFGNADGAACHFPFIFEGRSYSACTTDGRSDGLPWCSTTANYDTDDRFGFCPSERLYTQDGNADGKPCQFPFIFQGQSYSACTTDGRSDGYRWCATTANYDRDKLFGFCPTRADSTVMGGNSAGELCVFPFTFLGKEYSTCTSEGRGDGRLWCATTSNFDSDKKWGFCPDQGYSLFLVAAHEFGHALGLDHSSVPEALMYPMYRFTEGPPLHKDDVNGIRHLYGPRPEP
The target of the next assay is active hMMP-9(cat)_F192A (UniProt P14780 107-449). The assay can be described thus: substrate peptide degradation inhibition.
Sequence of active hMMP-9(cat)_F192A (P14780 107-449 F192A): as the sequence (P14780 107-449 Q199G) above, with F86A, G93Q counted along it
Another assay has as its target active hMMP-9(cat)_P193A (UniProt P14780 107-449). The assay can be described thus: substrate peptide degradation inhibition.
The next assay has as its target active hMMP-9(cat)_F110A (UniProt P14780 107-449). The experiment in a line: substrate peptide degradation inhibition.
The next assay has as its target active hMMP-9(cat)_Y393A (UniProt P14780 107-449). The experiment in a line: substrate peptide enzyme inhibition.
In the next assay the target is active hMMP-9(cat)_Y420A (UniProt P14780 107-449). The assay can be described thus: substrate peptide enzyme inhibition.
Sequence of active hMMP-9(cat)_Y420A (P14780 107-449 Y420A): as the sequence (P14780 107-449 Q199G) above, with G93Q, Y314A counted along it
In a further assay the target is active hMMP-9(cat)_L397A (UniProt P14780 107-449). The assay can be described thus: substrate peptide enzyme inhibition.
Sequence of active hMMP-9(cat)_L397A (P14780 107-449 L397A): as the sequence (P14780 107-449 Q199G) above, with G93Q, L291A counted along it
In the next assay the target is active hMMP-9(cat)_Y423A (UniProt P14780 107-449). The experiment in a line: substrate peptide enzyme inhibition.
Sequence of active hMMP-9(cat)_Y423A (P14780 107-449 Y423A): as the sequence (P14780 107-449 Q199G) above, with G93Q, Y317A counted along it
The target of assay [1] is T1, active hMMP-9(cat)_His6 (UniProt P14780 107-449). The assay can be described thus: enzyme inhibition; substrate peptide.
T1 sequence (P14780 107-449): as the sequence (P14780 107-449 Q199G) above, with G93Q counted along it
In assay [2] the target is T1, active hMMP-9(cat)_His6. The experiment in a line: enzyme inhibition; substrate peptide. The source holds these as a separate data set.
Another assay addresses active hMMP-9(cat)_L187A (UniProt P14780 107-449). The experiment in a line: substrate peptide degradation inhibition.

Read-outs that look alike come from different tables or passages of the source.

Sequence of active hMMP-9(cat)_D185A (P14780 107-449 D185A): as the sequence (P14780 107-449 Q199G) above, with D79A, G93Q counted along it
Sequence of active hMMP-9(cat)_Y179A (P14780 107-449 Y179A): as the sequence (P14780 107-449 Q199G) above, with Y73A, G93Q counted along it
Sequence of active hMMP-9(cat)_P193A (P14780 107-449 P193A): as the sequence (P14780 107-449 Q199G) above, with P87A, G93Q counted along it
Sequence of active hMMP-9(cat)_Y393A (P14780 107-449 Y393A): as the sequence (P14780 107-449 Q199G) above, with G93Q, Y287A counted along it
Sequence of active hMMP-9(cat)_F110A (P14780 107-449 F110A): as the sequence (P14780 107-449 Q199G) above, with F4A, G93Q counted along it
Sequence of active hMMP-9(cat)_L187A (P14780 107-449 L187A): as the sequence (P14780 107-449 Q199G) above, with L81A, G93Q counted along it

B1: active MMP-9-binding peptide M91011 (designed binder)
chain: GSGMKETAAAKFERQHMDSPDLGTDDDDKAMADIGSANSDPQFGLFSKYRTPNCMMYKYAQCSHKSQPVCGSDMSTYANECTLCMKIREGGHNIKIIRNGPCGASAAA
What is called IC50 is the concentration that gives 50% inhibition. Lower therefore signals greater potency. Consider B1, for which the IC50 was determined as 81 nM with active hMMP-9(cat)_Y179A; 310 nM with active hMMP-9(cat)_D185A; 22 nM in the assay with active hMMP-9(cat)_Q199G; 83 nM with active hMMP-9(cat)_F192A; 110 nM with active hMMP-9(cat)_P193A; 7.3 nM in the assay with active hMMP-9(cat)_F110A. Besides, the IC50 with active hMMP-9(cat)_Y393A is greater than 950 nM; with active hMMP-9(cat)_Y420A it was 33 nM; with active hMMP-9(cat)_L397A, 57 nM; in the assay with active hMMP-9(cat)_Y423A it was greater than 330 nM.

B2: active MMP-9-binding peptide M91002 (designed binder)
chain: GSGMKETAAAKFERQHMDSPDLGTDDDDKAMADIGSANSDPQFGLFSKYRTPNCRTGRGPACQMGFQPVCGSDMSTYANECTLCMKIREGGHNIKIIRNGPCGASAAA
For B2, the IC50 with active hMMP-9(cat)_His6 [1] is 5 nM.

B3: active MMP-9-binding peptide M91005 (designed binder)
chain: GSGMKETAAAKFERQHMDSPDLGTDDDDKAMADIGSANSDPQFGLFSKYRTPNCRKRGGPSCQMSYNPVCGSDMSTYANECTLCMKIREGGHNIKIIRNGPCGASAAA
B3: the IC50 is 1.1 nM with active hMMP-9(cat)_His6 [2]; 55 nM with active hMMP-9(cat)_Y179A; 29 nM in the assay with active hMMP-9(cat)_D185A; 40 nM with active hMMP-9(cat)_Q199G; greater than 1000 nM with active hMMP-9(cat)_F192A; 120 nM with active hMMP-9(cat)_L187A. For the same molecule, the half-maximal inhibitory concentration (IC50) with active hMMP-9(cat)_P193A came out at 13 nM; with active hMMP-9(cat)_F110A, 69 nM; with active hMMP-9(cat)_Y393A, 48 nM; in the assay with active hMMP-9(cat)_Y420A, 54 nM; in the assay with active hMMP-9(cat)_L397A, 37 nM; with active hMMP-9(cat)_Y423A, 230 nM.
